{
  "source": "paper PMC1874666",
  "about": "(Nucleic Acids Research, 2007)",
  "proteins": {"B1": {"name": "Helicobacter pylori neutrophil-activating protein (HP-NAP) (natural protein, UniProt P43313 1-144, looked up)", "chain": "MKTFEILKHLQADAIVLFMKVHNFHWNVKGTDFFNVHKATEEIYEEFADMFDDLAERIVQLGHHPLVTLSEAIKLTRVKEETKTSFHSKDIFKEILEDYKYLEKEFKELSNTAEKEGDKVTVTYADDQLAKLQKSIWMLQAHLA"}},
  "biological_target": "the molecule itself",
  "experiment": "AUC",
  "data": [
    {"protein": "B1", "values": [
      {"measurement": "stoichiometry N", "result": 12}
    ]}
  ]
}
